Reference: US20240066131A1 (Protagonist Therapeutics, Inc., priority 2020, published 2024)
Starred links: 1 amine or outer side, 2 acyl side, 3 side chain; linkers in the order of their positions; H or OH if unused. Non-standard residues stand in square brackets, D forms with d. Groups on a side chain read outwards from the residue. No end group written: not given here. *: point of attachment. N_Butyl_Phe = CCCCN([C@@H](Cc1ccccc1)C(=O)[*:2])[*:1]; C18 diacid = O=C(O)CCCCCCCCCCCCCCCCC(=O)*; Dip = N[C@H](C(=O)O)C(c1ccccc1)c1ccccc1; γGlu = O=C(O)[C@H](CCC(=O)[*:2])N[*:1]; Palmitoyl = CCCCCCCCCCCCCCCC(=O)*; β3hF = N[C@H](CC(=O)O)Cc1ccccc1; Isovaleryl = CC(C)CC(=O)*; AEEA = NCCOCCOCC(=O)O; Ahx = NCCCCCC(=O)O; NHPr = CCCN*

T1: human ferroportin (SLC40A1) fused in frame with GFP, stably expressed in HEK293 cells (human, UniProt Q9NP59 1-571)
T1 sequence (looked up): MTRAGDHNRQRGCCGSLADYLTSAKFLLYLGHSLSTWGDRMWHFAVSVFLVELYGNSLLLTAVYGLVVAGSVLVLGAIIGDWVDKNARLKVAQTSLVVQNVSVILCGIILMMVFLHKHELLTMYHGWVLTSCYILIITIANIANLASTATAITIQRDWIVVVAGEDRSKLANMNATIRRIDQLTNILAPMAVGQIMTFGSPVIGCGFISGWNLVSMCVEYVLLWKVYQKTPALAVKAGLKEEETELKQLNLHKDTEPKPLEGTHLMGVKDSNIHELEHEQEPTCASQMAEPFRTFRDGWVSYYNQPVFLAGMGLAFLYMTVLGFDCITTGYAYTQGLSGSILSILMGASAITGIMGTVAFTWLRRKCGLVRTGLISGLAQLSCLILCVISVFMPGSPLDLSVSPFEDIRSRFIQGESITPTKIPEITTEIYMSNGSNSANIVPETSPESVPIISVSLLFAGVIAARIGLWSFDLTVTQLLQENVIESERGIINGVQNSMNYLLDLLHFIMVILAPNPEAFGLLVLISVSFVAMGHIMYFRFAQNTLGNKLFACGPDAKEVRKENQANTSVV

B1: Ac-[Lys(Ahx_Palm)]-T-H-[Dpa]-P-A-I-[(D)Lys]-[bhPhe]-NH2 (peptide)
peptide: Ac-K([Ahx-Palmitoyl])TH[Dip]PAI[dK][β3hF]-NH2
SMILES: CCCCCCCCCCCCCCCC(=O)NCCCCCC(=O)NCCCC[C@H](NC(C)=O)C(=O)N[C@H](C(=O)N[C@@H](Cc1c[nH]cn1)C(=O)N[C@H](C(=O)N1CCC[C@H]1C(=O)N[C@@H](C)C(=O)N[C@H](C(=O)N[C@H](CCCCN)C(=O)N[C@H](CC(N)=O)Cc1ccccc1)[C@@H](C)CC)C(c1ccccc1)c1ccccc1)[C@@H](C)O
B2: Isovaleric Acid-[Lys(Ahx_Palm)]-T-H-[Dpa]-P-A-I-[(D)Lys]-[bhPhe]-NH2; 1 (peptide)
peptide: Isovaleryl-K([Ahx-Palmitoyl])TH[Dip]PAI[dK][β3hF]-NH2
SMILES: CCCCCCCCCCCCCCCC(=O)NCCCCCC(=O)NCCCC[C@H](NC(=O)CC(C)C)C(=O)N[C@H](C(=O)N[C@@H](Cc1c[nH]cn1)C(=O)N[C@H](C(=O)N1CCC[C@H]1C(=O)N[C@@H](C)C(=O)N[C@H](C(=O)N[C@H](CCCCN)C(=O)N[C@H](CC(N)=O)Cc1ccccc1)[C@@H](C)CC)C(c1ccccc1)c1ccccc1)[C@@H](C)O
B3: Isovaleric Acid-[Lys(Ahx_Palm)]-T-H-[Dpa]-P-A-I-[(D)Lys]-[bhPhe]-NH2; 2 (peptide)
peptide: Isovaleryl-K([Ahx-Palmitoyl])TH[Dip]PAI[dK][β3hF]-NH2
SMILES: CCCCCCCCCCCCCCCC(=O)NCCCCCC(=O)NCCCC[C@H](NC(=O)CC(C)C)C(=O)N[C@H](C(=O)N[C@@H](Cc1c[nH]cn1)C(=O)N[C@H](C(=O)N1CCC[C@H]1C(=O)N[C@@H](C)C(=O)N[C@H](C(=O)N[C@H](CCCCN)C(=O)N[C@H](CC(N)=O)Cc1ccccc1)[C@@H](C)CC)C(c1ccccc1)c1ccccc1)[C@@H](C)O
B4: Isovaleric Acid-E-T-H-[Dpa]-P-A-I-[Lys(Ahx_Palm)]-L-NH2 (peptide)
peptide: Isovaleryl-ETH[Dip]PAIK([Ahx-Palmitoyl])L-NH2
SMILES: CCCCCCCCCCCCCCCC(=O)NCCCCCC(=O)NCCCC[C@H](NC(=O)[C@@H](NC(=O)[C@H](C)NC(=O)[C@@H]1CCCN1C(=O)[C@@H](NC(=O)[C@H](Cc1c[nH]cn1)NC(=O)[C@@H](NC(=O)[C@H](CCC(=O)O)NC(=O)CC(C)C)[C@@H](C)O)C(c1ccccc1)c1ccccc1)[C@@H](C)CC)C(=O)N[C@@H](CC(C)C)C(N)=O
B5: Isovaleric Acid-E-T-H-[Dpa]-P-L-I-[Lys(Ahx_Palm)]-L-NH2 (peptide)
peptide: Isovaleryl-ETH[Dip]PLIK([Ahx-Palmitoyl])L-NH2
SMILES: CCCCCCCCCCCCCCCC(=O)NCCCCCC(=O)NCCCC[C@H](NC(=O)[C@@H](NC(=O)[C@H](CC(C)C)NC(=O)[C@@H]1CCCN1C(=O)[C@@H](NC(=O)[C@H](Cc1c[nH]cn1)NC(=O)[C@@H](NC(=O)[C@H](CCC(=O)O)NC(=O)CC(C)C)[C@@H](C)O)C(c1ccccc1)c1ccccc1)[C@@H](C)CC)C(=O)N[C@@H](CC(C)C)C(N)=O
B6: Isovaleric Acid-L-T-H-[Dpa]-P-A-I-[Lys(Ahx_Palm)]-L-NH2 (peptide)
peptide: Isovaleryl-LTH[Dip]PAIK([Ahx-Palmitoyl])L-NH2
SMILES: CCCCCCCCCCCCCCCC(=O)NCCCCCC(=O)NCCCC[C@H](NC(=O)[C@@H](NC(=O)[C@H](C)NC(=O)[C@@H]1CCCN1C(=O)[C@@H](NC(=O)[C@H](Cc1c[nH]cn1)NC(=O)[C@@H](NC(=O)[C@H](CC(C)C)NC(=O)CC(C)C)[C@@H](C)O)C(c1ccccc1)c1ccccc1)[C@@H](C)CC)C(=O)N[C@@H](CC(C)C)C(N)=O
B7: Isovaleric Acid-L-T-H-[Dpa]-P-L-I-[Lys(Ahx_Palm)]-L-NH2 (peptide)
peptide: Isovaleryl-LTH[Dip]PLIK([Ahx-Palmitoyl])L-NH2
SMILES: CCCCCCCCCCCCCCCC(=O)NCCCCCC(=O)NCCCC[C@H](NC(=O)[C@@H](NC(=O)[C@H](CC(C)C)NC(=O)[C@@H]1CCCN1C(=O)[C@@H](NC(=O)[C@H](Cc1c[nH]cn1)NC(=O)[C@@H](NC(=O)[C@H](CC(C)C)NC(=O)CC(C)C)[C@@H](C)O)C(c1ccccc1)c1ccccc1)[C@@H](C)CC)C(=O)N[C@@H](CC(C)C)C(N)=O
B8: Isovaleric Acid-L-T-H-[Dpa]-P-L-I-[Lys(Ahx_Palm)]-[bhPhe]-NH2 (peptide)
peptide: Isovaleryl-LTH[Dip]PLIK([Ahx-Palmitoyl])[β3hF]-NH2
SMILES: CCCCCCCCCCCCCCCC(=O)NCCCCCC(=O)NCCCC[C@H](NC(=O)[C@@H](NC(=O)[C@H](CC(C)C)NC(=O)[C@@H]1CCCN1C(=O)[C@@H](NC(=O)[C@H](Cc1c[nH]cn1)NC(=O)[C@@H](NC(=O)[C@H](CC(C)C)NC(=O)CC(C)C)[C@@H](C)O)C(c1ccccc1)c1ccccc1)[C@@H](C)CC)C(=O)N[C@H](CC(N)=O)Cc1ccccc1
B9: Isovaleric Acid-L-T-H-[Dpa]-P-A-I-[Lys(Ahx_Palm)]-[bhPhe]-NH2 (peptide)
peptide: Isovaleryl-LTH[Dip]PAIK([Ahx-Palmitoyl])[β3hF]-NH2
SMILES: CCCCCCCCCCCCCCCC(=O)NCCCCCC(=O)NCCCC[C@H](NC(=O)[C@@H](NC(=O)[C@H](C)NC(=O)[C@@H]1CCCN1C(=O)[C@@H](NC(=O)[C@H](Cc1c[nH]cn1)NC(=O)[C@@H](NC(=O)[C@H](CC(C)C)NC(=O)CC(C)C)[C@@H](C)O)C(c1ccccc1)c1ccccc1)[C@@H](C)CC)C(=O)N[C@H](CC(N)=O)Cc1ccccc1
B10: Isovaleric Acid-E-T-H-[Dpa]-P-[Lys(1PEG2_1PEG2_Ahx_C18_Diacid)]-[bhPhe]-NH2 (peptide)
peptide: XETHXPXX
modifications: N-term Isovaleric Acid; Dpa4; Lys(1PEG2_1PEG2_Ahx_C18_Diacid)6; bhPhe7; C-term NH2
B11: Isovaleric Acid-E-T-H-[Dpa]-P-[Lys(1PEG2_1PEG2_IsoGlu_C18_Diacid)]-[bhPhe]-NH2 (peptide)
peptide: XETHXPXX
modifications: N-term Isovaleric Acid; Dpa4; Lys(1PEG2_1PEG2_IsoGlu_C18_Diacid)6; bhPhe7; C-term NH2
B12: Isovaleric Acid-E-T-H-[Dpa]-P-d[Lys(1PEG2_1PEG2_Ahx_C18_Diacid)]-[bhPhe]-NH2 (peptide)
peptide: XETHXPXX
modifications: not fully specified; N-term Isovaleric Acid; Dpa4; d[Lys(1PEG2_1PEG2_Ahx_C18_Diacid)]6; bhPhe7; C-term NH2
B13: Isovaleric Acid-E-T-H-[Dpa]-P-d[Lys(1PEG2_1PEG2_IsoGlu_C18_Diacid)]-[bhPhe]-NH2 (peptide)
peptide: XETHXPXX
modifications: N-term Isovaleric Acid; Dpa4; d[Lys(1PEG2_1PEG2_IsoGlu_C18_Diacid)]6; bhPhe7; C-term NH2
B14: Isovaleric Acid-L-T-H-[Dpa]-P-[Lys(1PEG2_1PEG2_IsoGlu_C18_Diacid)]-[bhPhe]-NH2 (peptide)
peptide: Isovaleryl-LTH[Dip]PK([AEEA-AEEA-γGlu-C18 diacid])[β3hF]-NH2
SMILES: CC(C)CC(=O)N[C@@H](CC(C)C)C(=O)N[C@H](C(=O)N[C@@H](Cc1c[nH]cn1)C(=O)N[C@H](C(=O)N1CCC[C@H]1C(=O)N[C@@H](CCCCNC(=O)COCCOCCNC(=O)COCCOCCNC(=O)CC[C@H](NC(=O)CCCCCCCCCCCCCCCCC(=O)O)C(=O)O)C(=O)N[C@H](CC(N)=O)Cc1ccccc1)C(c1ccccc1)c1ccccc1)[C@@H](C)O
B15: Isovaleric Acid-L-T-H-[Dpa]-P-d[Lys(1PEG2_1PEG2_IsoGlu_C18_Diacid)]-[bhPhe]-NH2 (peptide)
peptide: Isovaleryl-LTH[Dip]P[dK]([AEEA-AEEA-γGlu-C18 diacid])[β3hF]-NH2
SMILES: CC(C)CC(=O)N[C@@H](CC(C)C)C(=O)N[C@H](C(=O)N[C@@H](Cc1c[nH]cn1)C(=O)N[C@H](C(=O)N1CCC[C@H]1C(=O)N[C@H](CCCCNC(=O)COCCOCCNC(=O)COCCOCCNC(=O)CC[C@H](NC(=O)CCCCCCCCCCCCCCCCC(=O)O)C(=O)O)C(=O)N[C@H](CC(N)=O)Cc1ccccc1)C(c1ccccc1)c1ccccc1)[C@@H](C)O
B16: Isovaleric Acid-E-T-H-[Dpa]-P-[Lys(1PEG2_1PEG2_IsoGlu_C18_Diacid)]-N_Ethyl_Phe (peptide)
peptide: XETHXPXX
modifications: N-term Isovaleric Acid; Dpa4; Lys(1PEG2_1PEG2_IsoGlu_C18_Diacid)6; C-term N_Ethyl_Phe
B17: Isovaleric Acid-E-T-H-[Dpa]-P-[Lys(1PEG2_1PEG2_IsoGlu_C18_Diacid)]-Propyl_Amine (peptide)
peptide: XETHXPXX
modifications: N-term Isovaleric Acid; Dpa4; Lys(1PEG2_1PEG2_IsoGlu_C18_Diacid)6; C-term Propyl_Amine
B18: Isovaleric Acid-E-T-H-[Dpa]-P-[Lys(1PEG2_1PEG2_IsoGlu_C18_Diacid)]-N_Butyl_Phe (peptide)
peptide: XETHXPXX
modifications: N-term Isovaleric Acid; Dpa4; Lys(1PEG2_1PEG2_IsoGlu_C18_Diacid)6; C-term N_Butyl_Phe
B19: Isovaleric Acid-L-T-H-[Dpa]-P-[Lys(Ahx_Palm)]-N_Ethyl_Phe (peptide)
peptide: Isovaleryl-LTH[Dip]PK([Ahx-Palmitoyl])[N_Ethyl_Phe]
B20: Isovaleric Acid-L-T-H-[Dpa]-P-[Lys(Ahx_Palm)]-Propyl_Amine (peptide)
peptide: Isovaleryl-LTH[Dip]PK([Ahx-Palmitoyl])-NHPr
B21: Isovaleric Acid-L-T-H-[Dpa]-P-[Lys(Ahx_Palm)]-N_Butyl_Phe (peptide)
peptide: Isovaleryl-LTH[Dip]PK([Ahx-Palmitoyl])[N_Butyl_Phe]
B22: Isovaleric Acid-L-T-H-[Dpa]-[Lys(1PEG2_1PEG2 IsoGlu_C18_Diacid)]-N_Ethyl Phe (peptide)
peptide: Isovaleryl-LTH[Dip]K([AEEA-AEEA-γGlu-C18 diacid])[N_Ethyl_Phe]
B23: Isovaleric Acid-L-T-H-[Dpa]-[Lys(1PEG2_1PEG2_IsoGlu_C18_Diacid)]-Benzyl_Amine (peptide)
peptide: Isovaleryl-LTH[Dip]K([AEEA-AEEA-γGlu-C18 diacid])-Benzyl_Amine
B24: Isovaleric Acid-L-T-H-[Dpa]-[Lys(1PEG2_1PEG2_IsoGlu_C18_Diacid)]-Propyl_Amine (peptide)
peptide: Isovaleryl-LTH[Dip]K([AEEA-AEEA-γGlu-C18 diacid])-NHPr
SMILES: CCCNC(=O)[C@H](CCCCNC(=O)COCCOCCNC(=O)COCCOCCNC(=O)CC[C@H](NC(=O)CCCCCCCCCCCCCCCCC(=O)O)C(=O)O)NC(=O)[C@@H](NC(=O)[C@H](Cc1c[nH]cn1)NC(=O)[C@@H](NC(=O)[C@H](CC(C)C)NC(=O)CC(C)C)[C@@H](C)O)C(c1ccccc1)c1ccccc1
B25: Isovaleric Acid-L-T-H-[Dpa]-[Lys(1PEG2_1PEG2_IsoGlu_C18_Diacid)]-N_Butyl Phe (peptide)
peptide: Isovaleryl-LTH[Dip]K([AEEA-AEEA-γGlu-C18 diacid])[N_Butyl_Phe]

biological target: T1, human ferroportin (SLC40A1) fused in …; assay: cell-based or functional assay

Binder | FPN IC50 [nM]
B1 | > 3000
B2 | 598
B3 | 654
B4 | 82
B5 | 37.4
B6 | 169
B7 | 342
B8 | 1270
B9 | 1580
B10 | 367
B11 | 1690
B12 | 86.8
B13 | 1490
B14 | 482
B15 | 394
B16 | 408
B17 | 470
B18 | 448
B19 | 18.3
B20 | 87.3
B21 | 74
B22 | > 3000
B23 | > 3000
B24 | > 3000
B25 | > 3000
